Test results taken from patent publication US20050038229A1 (published 2005).
Where a chain is given by its changes, count along the chain named.

B1: M12.08 (designed binder)
chain: VSDVPRDLEVVAATPTSLLNVPIIRYYRITYGETGGNSPVQEFTVPAPKAIATTSGLKPGVDYTITVYGVTSHRNHFHVETPISINYQA
notes: BC loop cell holds only II
B2: T14.22 (designed binder)
chain: VSDVPRDLEVVAATPSSRLISWRPGRTYSRYYRITYGETGGNSPVQEFTVPPWANTATISGLKPGVDYTIAVYAVTFPTGYPLTEMPISINYRT
B3: M12.09 (designed binder)
chain: B2 chain with S16T, T27A, Y32F, T79P, G80R, T94A
B4: T10.15 (designed binder)
chain: VSDVPRDLEVVAATPTSLLISWHTERSFPRYYRITYGETGGNSPVQEFTVPPWGSIATISGLKPGVDYTITVYAVTEHYRDTGTGHPIPINYRT
B5: M12.22 (designed binder)
chain: VSDVPRDLRVVAATPTSRLISWRPASNPARYYRITYGETGGNSPVQEFTVPPWASVATIGGLKPGVDYTVTVYAVTAQTGHRLHDKPISINYRT
B6: T14.20 (designed binder)
chain: VSDVPRDLEVVAATPTSRLISWRNIYPIARYYRITYGETGGNSPVQEFTVPPWASIATISGLKPGADYTITVYAVTDKSDTYKYDDPISINYRT
B7: M12.16 (designed binder)
chain: B6 chain with N24P, I25G, Y26R, P27T, I28Y, A29S, T39A, A66V, D80G, K83R
B8: M12.24 (designed binder)
chain: VSDVPRDLEVVAATPTSRLISWNRSGLQSGYYRITYGETGGNSPVQEFTVPPWASIATISGLKPGVDYTITVYAVTPNVGRLDTRYPISIDCRT
B9: M12.14 (designed binder)
chain: VSDVPRDLKVVAATPTSRLISWTHDNVPARYYRITYGETGGNSPVQELTVPPWASIATISGLKPGVDYTITVYAVTLYTGNHRPEHPISINYRT
B10: M12.19 (designed binder)
chain: VSDVPRDLEVVAATPTGLLISWRNNQYTPRHYGITYGETGGKSPVQEFTVPELNPTATISRLKPGVDYTITVYAVTQNGTPRVIYGPISINYRT
B11: M12.04 (designed binder)
chain: VSDVPGDLEVVAATPTSLLIGWSMTPNWPRYYRIAYGETGGDSPVQEFTVPPWASIAIIGGLKPGVDYTITVYAVTHRDTPISINYRT
notes: FG loop cell holds only HRDT
B12: M12.12 (designed binder)
chain: VSDVPSDLEVVAATPTSLLISWEQSPTYGRYYRITYGETGGNSPVQEFTVPGSKSTATISGRKPGADYTITVYAVTIEKDRIPLFGPISISYRT
B13: T14.02 (designed binder)
chain: VSDVPRDLEVVVATPTSQLISWMTPHNHVRYYGITYGETGGNSPVQESTVPTGNATATISGLKPGVDYTITVYAVTPHHGHFDLEPPISINYRT
B14: T14.21 (designed binder)
chain: VSDVPRDLEVVAATPTSRLISWRPGRTYSRYYRITYGETGGNSPVQEFTVPPWANTATISGLKPGVDYTITAYAVTYTHSTPMQDEPISINYRT

Molecular target: T1, tumor necrosis factor-α (TNF-α) (human, UniProt P01375 77-233, biotinylated with NHS-LC-LC-Biotin in the Kd and fluorescence assays; coupled to Epoxy-Activated Sepharose 6B in the column assays)
T1 construct: Bought from Pepro Tech; also called biotin-TNF-α; biotinylated TNF-α
Assay: 35S free protein + biotin-TNF-α, capture membrane, equilibrium fit
Method: Subsequently, each sample was loaded on a pre-soaked, SAM2R Biotin Capture Membrane (Promega, Madison, Wis.) using a 96 well, Easy-Titer™ ELIFA system (Pierce). Under vacuum, each spot was washed with 200 μL of HBS pH 7.4, 1% BSA, 0.05% Triton; next the entire membrane was rinsed in the buffer and air-dried. The membrane was exposed with a Storage Phosphor Screen (Molecular Dynamics, Sunnyvale, Calif.) overnight, and the intensities of the resulting individual spots were quantified using a STORM 860 phosphoimager with the ImageQuaNT densitometry program (Molecular Dynamics). The Kd of the binding was determined by fitting the equilibrium equation to the resulting binding curve (KaleidaGraph, Synergy Software); the error of the experiment was estimated from 2-4 independent experiments.

T1 sequence (P01375 77-233 limits assumed): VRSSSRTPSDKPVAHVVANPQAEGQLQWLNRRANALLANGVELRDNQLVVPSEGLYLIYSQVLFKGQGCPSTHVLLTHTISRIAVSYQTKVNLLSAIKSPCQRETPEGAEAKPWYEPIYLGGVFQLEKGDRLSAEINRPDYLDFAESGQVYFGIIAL

| Binder | Kd [nM] |
| --- | --- |
| B1 | 0.6 |
| B2 | 0.4 |
| B3 | 0.4 |
| B4 | 4 |
| B5 | 0.7 |
| B6 | 0.11 |
| B7 | 0.3 |
| B8 | 1.3 |
| B9 | 1.7 |
| B10 | 0.6 |
| B11 | 0.02 |
| B12 | 0.2 |
| B13 | 0.5 |
| B14 | 7 |
